The source of these data is the supplement of paper PMC10065799, “High-throughput profiling of sequence recognition by tyrosine kinases and SH2 domains using bacterial peptide display” (eLife, 2023).

One data set concerns the target Jak2 (UniProt O60674). The experiment in a line: phosphorylation enrichment, bacterial display (enrichment ratio); higher = better substrate or ligand; peptides without Tyr show the background.
Another data set has as its target Fyn (UniProt P06241). The description is as above.
For the next data set, the system named is c-Src. Described as above.
In a further data set the target is MERTK (UniProt Q12866). The description is as above.
A further data set concerns the target Fes (UniProt P07332). The description is as above.
Another data set has as its target EPHB1 (UniProt P54762). The description is as above.
A further data set concerns Fer (mouse). Described as above.
A further data set concerns the target FGFR1 (UniProt P11362). The data set is described as above.
A further data set addresses FGFR3 (UniProt P22607). The description is as above.
The subject of the next data set is c-Abl (mouse). Described as above.
The next data set concerns AncSZ. The data set is described as above.
Another data set concerns the target Hck (UniProt P08631). The description is as above.
A further data set concerns the target EPHB2 (UniProt P29323). The data set is described as above.
Another data set concerns the target Grb2 SH2 (UniProt P62993). The experiment in a line: SH2 binding enrichment of the phosphorylated peptide, bacterial display (enrichment ratio); higher = better substrate or ligand; peptides without Tyr show the background.
The target of another data set is SHP2-C SH2. The description is as above.
The next data set deals with c-Src SH2. Described as above.
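For SH2 binding enrichment of the phosphorylated peptide, bacterial display in this document: peptide library displayed on the E. coli surface as eCPX fusions, selected cells deep-sequenced, score is each peptide's frequency after selection divided by its frequency in the input.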
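For phosphorylation enrichment, bacterial display in this document: 11-residue human phosphosite peptides and single-mutation variants displayed on the E. coli surface, counted by deep sequencing, each peptide's frequency after selection divided by its frequency in the unselected input library; frequency after pTyr selection over input frequency; kinase dosed for 20-30% of maximal phosphorylation in three min.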

Chain of Hck (P08631 whole entry, looked up): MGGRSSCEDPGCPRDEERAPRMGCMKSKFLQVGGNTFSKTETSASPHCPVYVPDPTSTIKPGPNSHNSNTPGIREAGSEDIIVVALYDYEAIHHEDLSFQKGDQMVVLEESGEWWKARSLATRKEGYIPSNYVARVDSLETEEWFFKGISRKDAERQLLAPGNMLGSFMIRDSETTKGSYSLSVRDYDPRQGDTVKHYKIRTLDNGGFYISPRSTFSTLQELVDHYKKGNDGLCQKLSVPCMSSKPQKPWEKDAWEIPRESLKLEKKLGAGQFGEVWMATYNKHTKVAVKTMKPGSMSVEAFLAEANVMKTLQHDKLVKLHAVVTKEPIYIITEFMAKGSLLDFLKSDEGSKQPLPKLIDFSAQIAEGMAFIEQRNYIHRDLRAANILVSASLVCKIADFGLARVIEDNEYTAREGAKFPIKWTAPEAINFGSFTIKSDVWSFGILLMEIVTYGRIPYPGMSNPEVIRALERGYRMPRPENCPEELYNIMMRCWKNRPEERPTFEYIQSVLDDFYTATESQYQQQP
Chain of EPHB1 (P54762 whole entry, looked up): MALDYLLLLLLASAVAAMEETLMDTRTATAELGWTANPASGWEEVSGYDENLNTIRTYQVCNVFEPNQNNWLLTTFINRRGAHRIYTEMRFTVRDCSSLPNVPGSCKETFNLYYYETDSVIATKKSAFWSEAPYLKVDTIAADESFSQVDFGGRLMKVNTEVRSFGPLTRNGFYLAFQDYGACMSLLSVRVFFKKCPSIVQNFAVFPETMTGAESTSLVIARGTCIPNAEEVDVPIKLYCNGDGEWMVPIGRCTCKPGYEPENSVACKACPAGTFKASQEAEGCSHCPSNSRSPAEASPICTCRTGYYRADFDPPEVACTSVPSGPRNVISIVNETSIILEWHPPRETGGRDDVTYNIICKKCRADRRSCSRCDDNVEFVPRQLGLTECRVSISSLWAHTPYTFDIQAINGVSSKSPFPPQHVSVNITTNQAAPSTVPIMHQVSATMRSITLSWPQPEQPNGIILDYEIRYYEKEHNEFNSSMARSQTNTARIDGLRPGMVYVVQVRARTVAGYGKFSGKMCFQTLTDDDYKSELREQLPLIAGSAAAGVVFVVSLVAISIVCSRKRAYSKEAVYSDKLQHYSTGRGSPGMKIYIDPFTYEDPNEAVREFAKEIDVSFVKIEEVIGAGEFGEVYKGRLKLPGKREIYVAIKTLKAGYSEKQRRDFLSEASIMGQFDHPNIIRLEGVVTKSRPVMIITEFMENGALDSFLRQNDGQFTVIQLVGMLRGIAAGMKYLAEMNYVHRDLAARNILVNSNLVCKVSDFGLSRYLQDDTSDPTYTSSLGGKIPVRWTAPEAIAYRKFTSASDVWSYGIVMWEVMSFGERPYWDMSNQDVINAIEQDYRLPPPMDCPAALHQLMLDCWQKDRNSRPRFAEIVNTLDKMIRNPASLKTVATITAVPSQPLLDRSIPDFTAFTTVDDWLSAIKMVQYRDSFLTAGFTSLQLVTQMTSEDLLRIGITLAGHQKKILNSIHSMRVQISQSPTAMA
Chain of Fes (P07332 whole entry, looked up): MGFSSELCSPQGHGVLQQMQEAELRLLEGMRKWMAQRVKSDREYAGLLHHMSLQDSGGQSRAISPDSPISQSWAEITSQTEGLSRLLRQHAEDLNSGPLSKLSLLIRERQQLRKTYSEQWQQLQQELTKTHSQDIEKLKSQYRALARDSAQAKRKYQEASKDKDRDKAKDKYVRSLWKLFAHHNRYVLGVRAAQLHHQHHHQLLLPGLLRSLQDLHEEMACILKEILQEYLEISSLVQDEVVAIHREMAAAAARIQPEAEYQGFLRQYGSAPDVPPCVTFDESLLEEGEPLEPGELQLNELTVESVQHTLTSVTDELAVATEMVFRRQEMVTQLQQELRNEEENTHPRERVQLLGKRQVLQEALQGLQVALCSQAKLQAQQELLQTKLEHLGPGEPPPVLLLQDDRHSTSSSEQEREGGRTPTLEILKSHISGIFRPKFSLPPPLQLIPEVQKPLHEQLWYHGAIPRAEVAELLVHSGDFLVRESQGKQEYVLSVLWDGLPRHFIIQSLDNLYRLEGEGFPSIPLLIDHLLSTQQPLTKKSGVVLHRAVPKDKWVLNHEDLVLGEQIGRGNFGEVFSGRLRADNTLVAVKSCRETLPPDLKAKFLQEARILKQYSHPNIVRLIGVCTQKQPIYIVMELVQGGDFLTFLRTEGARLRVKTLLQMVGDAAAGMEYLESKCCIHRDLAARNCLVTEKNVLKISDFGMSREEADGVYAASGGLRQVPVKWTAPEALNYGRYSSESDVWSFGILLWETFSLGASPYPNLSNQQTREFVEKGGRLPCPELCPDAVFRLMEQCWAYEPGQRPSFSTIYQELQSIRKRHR
Chain of EPHB2 (P29323 whole entry, looked up): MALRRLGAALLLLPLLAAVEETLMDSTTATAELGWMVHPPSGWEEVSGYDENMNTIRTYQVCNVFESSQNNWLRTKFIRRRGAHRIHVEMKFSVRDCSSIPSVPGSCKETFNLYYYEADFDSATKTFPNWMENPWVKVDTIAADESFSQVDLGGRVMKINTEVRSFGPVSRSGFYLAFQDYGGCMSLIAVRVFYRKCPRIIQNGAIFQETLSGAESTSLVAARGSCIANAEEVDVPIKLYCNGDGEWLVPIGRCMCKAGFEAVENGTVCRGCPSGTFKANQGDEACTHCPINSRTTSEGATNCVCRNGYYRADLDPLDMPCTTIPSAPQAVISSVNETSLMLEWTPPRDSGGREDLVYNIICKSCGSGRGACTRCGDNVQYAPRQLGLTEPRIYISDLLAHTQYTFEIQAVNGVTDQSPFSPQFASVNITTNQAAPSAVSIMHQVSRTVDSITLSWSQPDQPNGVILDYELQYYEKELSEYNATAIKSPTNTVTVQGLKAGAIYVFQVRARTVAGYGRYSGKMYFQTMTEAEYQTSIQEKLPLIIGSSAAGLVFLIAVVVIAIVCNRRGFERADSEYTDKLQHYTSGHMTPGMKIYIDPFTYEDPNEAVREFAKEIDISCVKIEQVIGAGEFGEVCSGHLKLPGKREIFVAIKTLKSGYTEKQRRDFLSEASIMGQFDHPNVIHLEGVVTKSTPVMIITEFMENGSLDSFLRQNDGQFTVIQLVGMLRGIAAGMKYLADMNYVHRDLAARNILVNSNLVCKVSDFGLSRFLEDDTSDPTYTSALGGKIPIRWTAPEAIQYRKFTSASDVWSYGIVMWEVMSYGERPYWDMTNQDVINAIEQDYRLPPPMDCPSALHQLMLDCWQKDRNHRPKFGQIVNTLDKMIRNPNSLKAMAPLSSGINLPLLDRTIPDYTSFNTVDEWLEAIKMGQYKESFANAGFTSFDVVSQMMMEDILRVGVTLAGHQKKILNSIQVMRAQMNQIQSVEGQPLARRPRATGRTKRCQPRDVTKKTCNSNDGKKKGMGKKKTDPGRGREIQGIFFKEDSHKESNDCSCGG
Chain of Grb2 SH2 (P62993 whole entry, looked up): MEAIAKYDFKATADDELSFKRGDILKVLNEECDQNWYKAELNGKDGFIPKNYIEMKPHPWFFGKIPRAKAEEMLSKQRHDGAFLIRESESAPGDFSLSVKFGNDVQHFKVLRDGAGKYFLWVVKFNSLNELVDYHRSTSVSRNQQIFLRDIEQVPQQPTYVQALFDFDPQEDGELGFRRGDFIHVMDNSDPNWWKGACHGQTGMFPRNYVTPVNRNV
Chain of MERTK (Q12866 whole entry, looked up): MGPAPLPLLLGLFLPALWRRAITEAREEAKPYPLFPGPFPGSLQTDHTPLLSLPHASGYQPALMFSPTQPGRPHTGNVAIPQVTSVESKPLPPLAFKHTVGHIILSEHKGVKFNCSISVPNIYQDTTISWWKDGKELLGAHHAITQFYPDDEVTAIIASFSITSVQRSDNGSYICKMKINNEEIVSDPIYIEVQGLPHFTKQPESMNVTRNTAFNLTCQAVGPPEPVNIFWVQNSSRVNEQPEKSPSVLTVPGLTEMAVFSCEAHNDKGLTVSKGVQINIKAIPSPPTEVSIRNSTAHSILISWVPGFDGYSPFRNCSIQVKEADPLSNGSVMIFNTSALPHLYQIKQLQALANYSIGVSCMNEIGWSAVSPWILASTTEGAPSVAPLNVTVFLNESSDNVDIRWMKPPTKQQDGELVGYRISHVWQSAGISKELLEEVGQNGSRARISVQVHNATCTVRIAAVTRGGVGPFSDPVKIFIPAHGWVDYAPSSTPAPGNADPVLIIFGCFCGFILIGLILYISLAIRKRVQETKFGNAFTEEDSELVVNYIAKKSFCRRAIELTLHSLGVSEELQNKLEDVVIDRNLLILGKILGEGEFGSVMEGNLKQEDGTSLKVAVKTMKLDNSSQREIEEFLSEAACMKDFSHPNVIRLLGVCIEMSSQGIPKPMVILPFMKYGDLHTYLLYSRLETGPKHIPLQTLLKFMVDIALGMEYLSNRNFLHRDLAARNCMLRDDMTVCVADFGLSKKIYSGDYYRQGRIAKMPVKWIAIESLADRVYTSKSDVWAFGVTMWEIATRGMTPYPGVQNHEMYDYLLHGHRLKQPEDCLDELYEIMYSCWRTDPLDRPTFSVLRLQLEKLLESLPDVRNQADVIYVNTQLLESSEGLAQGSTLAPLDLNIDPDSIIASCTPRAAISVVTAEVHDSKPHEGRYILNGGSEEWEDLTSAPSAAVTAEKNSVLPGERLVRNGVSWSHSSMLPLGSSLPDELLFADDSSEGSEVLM

As for STEVIYLPRRK [STK11_Y36_Q37L], the phosphorylation enrichment stood at 0.568 with Jak2; 0.7 with Fyn; 0.591 in the data set with c-Src; 0.618 with MERTK; 0.589 with Fes; 0.419 with EPHB1. For the same sequence, the phosphorylation enrichment in the data set with Fer (mouse) came out at 0.526; in the data set with FGFR1, 0.52; with FGFR3, 0.53; in the data set on c-Abl (mouse) it was 0.466; in the data set on AncSZ, 0.624; in the data set with Hck, 0.515. In the data set with EPHB2, the phosphorylation enrichment is 0.588. Further, the SH2 binding enrichment with Grb2 SH2 stood at 0.546; with SHP2-C SH2, 0.586; with c-Src SH2 it was 0.336.

Turning to ATVQNYLPKCI [A2M_Y817_L815Q], the phosphorylation enrichment turned out to be 0.688 with Jak2; 0.369 with Fyn; 0.362 with c-Src; 0.372 with MERTK; 0.862 with Fes; 0.39 with EPHB1. Also, the phosphorylation enrichment turned out to be 0.406 in the data set with Fer (mouse); 0.462 with FGFR1; 0.489 with FGFR3; 0.687 in the data set with c-Abl (mouse); 0.626 with AncSZ; 0.346 with Hck. Besides, the phosphorylation enrichment with EPHB2 worked out at 0.482. Moreover, the SH2 binding enrichment with Grb2 SH2 worked out at 0.827; in the data set with SHP2-C SH2, 0.581; with c-Src SH2, 0.497.

As for TGSFTYEAVEL [MTMR14_Y462], the phosphorylation enrichment was 1.31 with Jak2; 2.21 with Fyn; 2.45 in the data set on c-Src; 1.87 with MERTK; 1.24 with Fes; 6.56 with EPHB1. Also, the phosphorylation enrichment in the data set on Fer (mouse) came out at 13.1; in the data set with FGFR1, 0.466; with FGFR3, 0.711; in the data set with c-Abl (mouse), 0.801; in the data set with AncSZ, 1.77; with Hck, 1.78. In addition, in the data set with EPHB2, the phosphorylation enrichment came to 3.89. Also, the SH2 binding enrichment in the data set with Grb2 SH2 was 0.664; with SHP2-C SH2, 0.768; with c-Src SH2, 0.653.

For the sequence YKTPTYPYLLP [PLD2_Y578], the phosphorylation enrichment in the data set with Jak2 turned out to be 0.92; in the data set with Fyn it was 0.525; with c-Src it was 0.625; in the data set with MERTK, 0.589; with Fes, 0.764; in the data set with EPHB1, 0.459. Besides, the phosphorylation enrichment with Fer (mouse) is 0.543; in the data set with FGFR1 it was 0.794; with FGFR3, 0.786; in the data set on c-Abl (mouse), 0.943; in the data set with AncSZ it was 0.958; in the data set with Hck, 0.481. In addition, the phosphorylation enrichment with EPHB2 was determined as 0.454. The SH2 binding enrichment with Grb2 SH2 was determined as 1.04; with SHP2-C SH2, 0.521; with c-Src SH2 it was 1.68.

On to QPGTDYKIFRF [FN1_Y1970_L1974R_YF], for which the phosphorylation enrichment with Jak2 was 1.64; with Fyn, 0.529; in the data set with c-Src it was 1.89; in the data set with MERTK it was 1.17; with Fes, 2.04; with EPHB1 it was 0.754. The phosphorylation enrichment stood at 0.756 in the data set on Fer (mouse); 1.22 in the data set with FGFR1; 1.28 in the data set with FGFR3; 1.74 in the data set with c-Abl (mouse); 1.77 in the data set with AncSZ; 1.18 in the data set with Hck. The phosphorylation enrichment with EPHB2 was determined as 0.567. For the same sequence, the SH2 binding enrichment in the data set with Grb2 SH2 is 0.644; with SHP2-C SH2, 0.635; with c-Src SH2, 0.497.

Regarding RHEASYSSDSE [REPS1_Y116_A113E], the phosphorylation enrichment with Jak2 is 0.784; with Fyn, 0.845; in the data set with c-Src it was 0.427; with MERTK it was 0.461; with Fes, 1.19; in the data set with EPHB1 it was 0.837. Besides, the phosphorylation enrichment in the data set with Fer (mouse) was 0.777; with FGFR1 it was 0.722; with FGFR3 it was 0.841; with c-Abl (mouse) it was 0.662; in the data set on AncSZ, 1.03; in the data set with Hck, 0.954. In the data set with EPHB2, the phosphorylation enrichment was found to be 0.591. In addition, the figures for the SH2 binding enrichment in the data set with Grb2 SH2, in the data set with SHP2-C SH2 and with c-Src SH2 were 0.861, 0.686 and 0.634, respectively.

For RRNTCYASIAK [ACADM_Y353_Y352C], the phosphorylation enrichment with Jak2 stood at 0.294; with Fyn it was 0.4; in the data set with c-Src, 0.279; with MERTK, 0.332; with Fes it was 0.467; with EPHB1, 0.287. In addition, the phosphorylation enrichment is 0.424 in the data set on Fer (mouse); 0.272 in the data set with FGFR1; 0.347 with FGFR3; 0.333 in the data set with c-Abl (mouse); 0.369 in the data set on AncSZ; 0.391 with Hck. In addition, the phosphorylation enrichment in the data set with EPHB2 worked out at 0.332. Also, the SH2 binding enrichment stood at 0.784 with Grb2 SH2, 7.11 with SHP2-C SH2 and 3.02 in the data set with c-Src SH2.

Consider TRRSSYEDSSL [HNF4A_Y144], for which the phosphorylation enrichment with Jak2 was determined as 0.465; with Fyn it was 0.53; with c-Src it was 0.447; in the data set with MERTK, 0.5; with Fes it was 0.707; with EPHB1, 0.379. Further, the phosphorylation enrichment in the data set on Fer (mouse) came to 0.447; with FGFR1, 0.42; with FGFR3 it was 0.57; in the data set with c-Abl (mouse), 0.402; in the data set with AncSZ, 1.2; in the data set with Hck, 0.457. For the same sequence, the phosphorylation enrichment in the data set with EPHB2 was 0.529. Further, the figures for the SH2 binding enrichment in the data set with Grb2 SH2, in the data set with SHP2-C SH2 and with c-Src SH2 were 0.822, 0.531 and 0.51, respectively.

With MKMISYETLIA [DOCK10_Y1350_T1347M], the phosphorylation enrichment in the data set with Jak2 was 0.888; with Fyn, 0.468; in the data set on c-Src it was 0.421; with MERTK it was 0.485; with Fes, 0.948; in the data set with EPHB1, 0.659. In addition, the phosphorylation enrichment came out at 0.467 in the data set with Fer (mouse); 0.634 with FGFR1; 0.629 with FGFR3; 0.65 in the data set with c-Abl (mouse); 0.784 in the data set on AncSZ; 0.581 with Hck. Further, in the data set with EPHB2, the phosphorylation enrichment worked out at 0.566. In addition, the SH2 binding enrichment with Grb2 SH2 was 0.752; with SHP2-C SH2 it was 1.24; in the data set with c-Src SH2, 2.
